Measurements published in patent publication US20200262869A1, “PEPTIDE ANTIBIOTIC COMPLEXES AND METHODS OF USE THEREOF” (GENENTECH, INC., priority 2017, published 2020).
Values after ≈ are worked out from the molar mass of the structure shown.

Columns and labels:
K. pneumoniae ATCC 43816 = experiment: MIC, broth microdilution; format: cell-based; details: K. pneumoniae ATCC 43816
Description: (§1) Minimum Inhibitory Concentration (MIC). MICs were determined by performing two-fold serial dilutions of compound in Mueller Hinton II cation-adjusted broth to a final volume of 0.1 m1 in round-bottom 96-well assay plates (Corning Life Sciences No 3788). Each well was inoculated with 5×10^5 CFU/ml and incubated at 37° C. without agitation for 18 hours. Plates were scored by eye, and the lowest compound concentration preventing visible growth was determined to be the MIC.

S. marcescens CDC4385-74 = experiment: MIC, broth microdilution; format: cell-based
Description: as §1

E. coli ATCC 25922 = experiment: MIC, broth microdilution; format: cell-based; details: E. coli ATCC 25922
Description: as §1

A. baumannii ATCC 17978 = experiment: MIC, broth microdilution; format: cell-based
Description: as §1

E. aerogenes ATCC 13408 = experiment: MIC, broth microdilution; format: cell-based
Description: as §1

E. cloacae ATCC 13407 = experiment: MIC, broth microdilution; format: cell-based
Description: as §1

C. werkmanii ATCC 51114 = experiment: MIC, broth microdilution; format: cell-based
Description: as §1

P. aeruginosa ATCC 27853 = experiment: MIC, broth microdilution; format: cell-based
Description: as §1

[1] = system: MDR K. pneumoniae CDC 0106; experiment: MIC against MDR clinical isolate; format: cell-based
Description: as §1

[2] = target: LepB P88T (E. coli ATCC 25922) (E. coli) (UniProt P00803); experiment: cell-based or functional assay
[3] = target: LepB P88R (E. coli ATCC 25922) (E. coli) (UniProt P00803); experiment: cell-based or functional assay
[4] = target: LepB in E. coli K-12 MG1655 (E. coli) (UniProt P00803); experiment: cell-based or functional assay
[5] = target: LepB A297V (E. coli ATCC 25922) (E. coli) (UniProt P00803); experiment: cell-based or functional assay
[6] = target: LepB P88Q (E. coli ATCC 25922) (E. coli) (UniProt P00803); experiment: cell-based or functional assay
[7] = target: LepB V133F (E. coli ATCC 25922) (E. coli) (UniProt P00803); experiment: cell-based or functional assay
[8] = target: LepB V149(VVGLP) (E. coli ATCC 25922) (E. coli) (UniProt P00803); experiment: cell-based or functional assay
[9] = target: LepB D143Y (E. coli ATCC 25922) (E. coli) (UniProt P00803); experiment: cell-based or functional assay
[10] = target: LepB P88L (E. coli ATCC 25922) (E. coli) (UniProt P00803); experiment: cell-based or functional assay
[11] = target: LepB E83K (E. coli ATCC 25922) (E. coli) (UniProt P00803); experiment: cell-based or functional assay
[12] = target: LepB L142R (E. coli ATCC 25922) (E. coli) (UniProt P00803); experiment: cell-based or functional assay
[13] = target: LepB F85S (E. coli ATCC 25922) (E. coli) (UniProt P00803); experiment: cell-based or functional assay
[14] = target: full length recombinant LepB from E. coli (E. coli) (UniProt P00803); experiment: kinetic enzyme assay, full-length LepB in detergent micelle, fluorogenic substrate Dabcyl-DAP-PAKAAE-Edans (SEQ ID NO: 6), 2-step irreversible binding model (Dynafit)

## CCCCCCCCCCCCCCCC(=O)N(C)[C@H](CO)C(=O)N[C@H](C)C(=O)NCC(=O)N(C)[C@@H]1C(=O)N[C@@H](C)C(=O)N[C@H](C(=O)O)Cc2ccc(O)c(c2)-c2cc1ccc2O [Arylomycin A-C16, reference compound]
K. pneumoniae ATCC 43816
  MIC: >64 µg/mL
S. marcescens CDC4385-74
  MIC: >64 µg/mL
E. coli ATCC 25922
  MIC: >64 µg/mL
A. baumannii ATCC 17978
  MIC: >64 µg/mL
E. aerogenes ATCC 13408
  MIC: >64 µg/mL
E. cloacae ATCC 13407
  MIC: >64 µg/mL
C. werkmanii ATCC 51114
  MIC: >64 µg/mL
P. aeruginosa ATCC 27853
  MIC: >64 µg/mL

## C[C@H]1COc2c(N3CCN(C)CC3)c(F)cc3c(=O)c(C(=O)O)cn1c23 [Levofloxacin]
[1]; Klebsiella pneumoniae
  MIC: > 64 µg/mL

## C[C@@H](O)[C@H]1C(=O)N2C(C(=O)O)=C(S[C@@H]3CN[C@H](C(=O)N(C)C)C3)[C@H](C)[C@H]12 [Meropenem]
[1]; Klebsiella pneumoniae
  MIC: > 64 µg/mL

## CN(C)c1cc(NC(=O)CNC(C)(C)C)c(O)c2c1C[C@H]1C[C@H]3[C@H](N(C)C)C(O)=C(C(N)=O)C(=O)[C@@]3(O)C(O)=C1C2=O [Tigecycline]
[1]; Klebsiella pneumoniae
  MIC: 2 µg/mL (≈ 3.41 µM)

## Colistin
[1]; MDR K. pneumoniae CDC 0106
  MIC: 16 µg/mL

## G0775 (peptide)
[2]
  Fold MIC Increase: 4 fold
[3]
  Fold MIC Increase: 16 fold
[4]
  G0775 MIC (µg/ml), MG 1655 - LepB High (Increase LepB expression level): 1 µg/mL
  G0775 MIC (µg/ml), MG 1655 - LepB Low (Reduced LepB expression level): 0.008 µg/mL
  G0775 MIC (µg/ml), MG1655 WT: 0.125 µg/mL
[5]
  Fold MIC Increase: 4 fold
[6]
  Fold MIC Increase: 4 fold
[7]
  Fold MIC Increase: 16 fold
[8]
  Fold MIC Increase: 128 fold
[9]
  Fold MIC Increase: 8 fold
[10]
  Fold MIC Increase: 16 fold
[11]
  Fold MIC Increase: 16 fold
[12]
  Fold MIC Increase: 8 fold
[13]
  Fold MIC Increase: 8 fold
[14]
  kinact: 0.0007 s⁻¹

## Gentamicin
[1]; MDR K. pneumoniae CDC 0106
  MIC: >64 µg/mL
